Like-named read-outs stand apart in the source and are kept apart here.

Data on two substances can be found in patent US20250381254A1, “Augmented Acid Alpha-Glucosidase For The Treatment Of Pompe Disease” (Amicus Therapeutics, Inc., priority 2015, published 2025).

The target in data set [1] is T1, CIMPR (Homo sapiens, UniProt P11717). Briefly: CIMPR plate binding assay. As for the experimental part:
Briefly, CIMPR-coated plates were used to capture GAA. Varying concentrations of rhGAA were applied to the immobilized receptor and unbound rhGAA was washed off. The amount of remaining rhGAA was determined by GAA activity.

The subject of data set [2] is normal and Pompe fibroblast cell lines. Briefly: Cellular uptake of rhGAA in fibroblasts. The format is cell-based. To be noted: for concentration that saturates cellular receptors: 16-hr incubation. The method, then: The relative cellular uptake of ATB200 and Lumizyme® rhGAA were compared using normal and Pompe fibroblast cell lines. Comparisons involved 5-100 nM of ATB200 rhGAA according to the invention with 10-500 nM conventional rhGAA Lumizyme®. After 16-hr incubation, external rhGAA was inactivated with TRIS base and cells were washed 3-times with PBS prior to harvest. Internalized GAA measured by 4MU-α-Glucoside hydrolysis and was graphed relative to total cellular protein and the results appear in FIGS. 10A-B.

The conditions of data set [3]: human, in vivo.
Experimental: This is an open-label, fixed-sequence, ascending-dose, first-in-human study to evaluate the safety, tolerability, and pharmacokinetics (PK) of intravenous (IV) recombinant acid α-glucosidase (ATB200, lyophilized powder reconstituted with sterile water for injection and diluted with 0.9% sodium chloride for injection) alone and when co-administered with oral miglustat (hard gelatin capsules, 65 mg). The study will be conducted in 2 stages. In Stage 1, safety, tolerability, and PK will be evaluated following sequential single ascending doses of ATB200, administered every 2 weeks as an approximately 4 hour intravenous infusion, for 3 dosing periods at 5, 10, and 20 mg/kg. In Stage 2, safety, tolerability, and PK will be evaluated following single- and multiple-ascending dose combinations: 20 mg/kg ATB200 co-administered every 2 weeks with 130 mg miglustat (two 65 mg capsules), taken orally 1 hour prior to an approximately 4 hour intravenous infusion of ATB200, for 3 doses followed by 20 mg/kg ATB200 co-administered with 260 mg miglustat (four 65 mg capsules), taken orally 1 hour prior to an approximately 4 hour intravenous infusion of ATB200, for 3 doses.
Data set [4] in a line: Clinical study: ALT, AST and CPK biomarkers. The format is in vivo, human. The method, then:
Alanine aminotransferase (ALT), aspartate aminotransferase (AST) and creatine phosphokinase (CPK) levels were monitored in human patients that switched from Lumizyme® to ATB200. The patients received ascending doses of ATB200 (5, 10 and 20 mg/kg) followed by co-administration of ATB200 (20 mg/kg) and miglustat (130 and 260 mg). High levels of CPK enzyme may indicate injury or stress to muscle tissue, heart, or brain. Elevated ALT and AST are markers of liver and muscle damage from Pompe disease, respectively.

For data set [5] the following is noted: cynomolgus monkey, in vivo.
Experimental: Total anti-drug antibody (ADA) and neutralizing antibody (NAb) levels are measured in plasma. Blood samples (approximately 1.6 mL) were collected in K2EDTA tubes from all animals once during acclimation, predose (prior to administration of miglustat) and on Days 1, 85 and 99. Samples were maintained on wet ice until processed. Plasma was obtained by centrifugation at 2° C. to 8° C. and aliquots (approximately 0.2 mL) were transferred to polypropylene vials, and stored frozen at −60° C. to −86° C. within one hour from blood collection. Analysis of samples for ADA was conducted on samples collected from animals in Groups 1, 2, 3, and 5 (miglustat only samples were not analyzed). Analysis for neutralizing antibodies was conducted using an enzyme assay with the fluorogenic substrate 4-methylumbelliferyl-α-D-glucopyranoside (4MU-Glc).
For data set [6] the following is noted: human, in vivo. From the text:
The study will be conducted in 2 stages.
This stage will include: • Safety: review of AEs, including serious adverse events (SAEs) and IARs; review of concomitant medications and nondrug therapies; vital signs (HR, RR, BP, and temperature); brief PE; ECG; clinical safety laboratory assessments (serum chemistry, hematology, and urinalysis); and urine pregnancy test • PD: urinary Hex4 and serum CPK • Immunological: blood samples for anti-recombinant acid α-glucosidase antibody titers (anti-recombinant acid α-glucosidase total and neutralizing antibody titers and antibody cross-reactivity with alglucosidase alfa) and blood samples for measurement of pro-inflammatory cytokines and other biomarkers of immune system activation. If needed, IgE measurements will also be performed. • Serial 24-hour pharmacokinetics (PK): During Period 1 (Visit 3, Day 1), Period 2 (Visit 4, Day 15), and Period 3 (Visit 5, Day 29), blood sampling for plasma acid α-glucosidase activity levels and total acid α-glucosidase protein concentrations will be taken for all subjects.
• Safety: review of AEs, including SAEs and IARs; review of concomitant medications and nondrug therapies; vital signs (HR, RR, BP, and temperature); weight; PE; ECG; clinical safety laboratory assessments (serum chemistry, hematology, and urinalysis); and urine pregnancy test • PD: urinary Hex4 and serum CPK • Immunological: blood samples for anti-recombinant acid α-glucosidase antibody titers (anti-recombinant acid α-glucosidase total and neutralizing antibody titers, and antibody cross-reactivity with alglucosidase alfa) and blood samples for measurement of pro-inflammatory cytokines and other biomarkers of immune system activation. If needed, IgE measurements will also be performed. • Serial 24-hour PK: During Period 4 (Visit 6, Day 43 and Visit 8, Day 71) and Period 5 (Visit 9, Day 85 and Visit 11, Day 113), blood sampling for plasma acid α-glucosidase activity levels, total acid α-glucosidase protein concentrations, and miglustat concentrations will be taken for all subjects. […]
This is another data set of the same source.

For data set [7] the following is noted: in vivo, iv, 100 mg/kg.
For data set [8] the following is noted: in vivo.
Experimental: Pharmacokinetic data for acid α-glucosidase (ATB200), including sampling times, dosing history and plasma concentrations of acid α-glucosidase, is obtained from mice, rats and monkeys administered ATB200 by intravenous injection. […] Modeling and simulations are performed using Phoenix® NLME™ v1.3. Compartmental PK models are constructed to assess the PK of ATB200 in plasma. The models include: • Description of the relationships between plasma concentration and time; • A variance component characterizing between- and within-animal variability in model parameters; and • A component describing uncertainty in the state of knowledge about critical model components.
PK is assumed to be species independent and is scaled according to a generalized Dedrick approach that scales the disposition according to the power of an animal's body weight:
where CL=systemic clearance, V=volume of distribution, BW=body weight, p=peripheral, b and d=allometric exponents, and a and c=typical values for a BW=1. […] Nominal BW (0.025, 0.25 and 2.5 kg) are used in the analyses.
The model includes a theoretical allometric component accounting for difference in body weight across animal species on clearance (CL) and volume of distribution (Vc).
Data set [9] concerns Gaa knockout mice. Briefly: Muscle physiology and morphology in Gaa-knockout mice. The format is in vivo, mouse. To be noted: 20 mg/kg rhGAA IV every other week, miglustat 10 mg/kg oral where co-administered.
A further data set concerns cynomolgus monkeys. Briefly: 13-week toxicity study in cynomolgus monkeys. The conditions noted are these: once every other week for 13 weeks. As for the experimental part:
Animals were acclimated to the study room for 18 (females) to 19 (males) days. On the final day of acclimation, animals weighed between 2.243 kg and 5.413 kg and were 2 to 3 years of age.
ATB200 is formulated in 25 mM sodium phosphate buffer, pH 6 containing 2.92 mg/mL sodium chloride, 20 mg/mL mannitol, and 0.5 mg/mL polysorbate 80 (formulation buffer). Test article (ATB200 or miglustat) and control article/vehicle (formulation buffer) were administered once every other week for 13 weeks, starting on Day 1 and ending on Day 85. ATB200 and the control article/vehicle were administered by 2 hour (±10 minute) intravenous (IV) infusion at 0 mg/kg (Group 1, control article), 50 mg/kg (Group 2), or 100 mg/kg (Groups 3 and 5). Miglustat was administered nasogastrically in sterile water for injection, USP, at 25 mg/kg (Group 2) or 175 mg/kg (Groups 3 and 4), 30 minutes (±2 minutes) prior to the start of the infusion for ATB200, when given in combination. The dosing volume across all groups was 10 mL/kg.
Parameters assessed during the in-life phase of the study included body weights, food consumption, clinical observations, detailed clinical observations, physical examinations, electrocardiography, ophthalmic assessments, clinical pathology (hematology, coagulation, serum chemistry), anti-drug antibody (ADA) assessment, neutralizing ADA assessment, urinalysis, and plasma toxicokinetics (TK) for miglustat and ATB200 activity and total protein. Terminal necropsy of animals was performed on Day 99 (14 days after the last dose administration). At necropsy, gross observations and organ weights were recorded, and tissues were collected for microscopic examination.

The test system of data set [10] is Pompe fibroblasts and skeletal muscle myoblasts. Briefly: Internalization by Pompe fibroblasts and skeletal muscle myoblasts. The format is cell-based.
In data set [11] the test system is Gaa knockout mice. Briefly: Exposure-response: glycogen levels in Gaa knockout mice.
Experimental: Gaa knockout mice are administered acid α-glucosidase (ATB200) intravenously at doses of 5, 10 and 20 mg/kg, rising oral doses of miglustat (1, 3 and 10 mg/kg) concomitantly with intravenous doses of 5 or 10 mg/kg of ATB200 or rising oral doses of miglustat (1, 3, 5, 10, 20, and 30 mg/kg) concomitantly with intravenous doses of 20 mg/kg of ATB200.
For data set [12] the following is noted: in vivo. This is another data set of the same source.
The conditions of data set [13]: cynomolgus monkey, in vivo. This is another data set of the same source.
Experimental: ATB200 toxicokinetics were measured in blood samples collected in K2EDTA tubes from animals on Days 1 and 85 at the following time points: • For Groups 1, 2, 3, and 5: Predose (prior to administration of miglustat); 1 hour from initiation of infusion; 2 hours from initiation of infusion; 2.5 hours from initiation of infusion; 3 hours from initiation of infusion; 4 hours from initiation of infusion; 6 hours from initiation of infusion; 12 hours from initiation of infusion; 26 hours from initiation of infusion; 168 hours from initiation of infusion; and 336 hours from initiation of infusion (collected prior to dosing on Day 15); and • For Group 4: Predose (prior to administration of miglustat); 1.5 hour post administration of miglustat; 2.5 hours post administration of miglustat; 3.5 hours post administration of miglustat; 4.5 hours post administration of miglustat; 6.5 hours post administration of miglustat; 12.5 hours post administration of miglustat; 26.5 hours post administration of miglustat; 168.5 hours post administration of miglustat; and 336.5 hours post administration of miglustat (collected prior to dosing on Day 15). […]
Total ATB200 protein was measured by liquid chromatography coupled to tandem mass spectrometry (LC-MS/MS). […]
For data set [14], the system named is Gaa knockout mice. Briefly: Glycogen clearance, ATB200 vs Lumizyme, two IV bolus administrations. The format is in vivo, mouse. The conditions noted are these: ATB200 10 and 20 mg/kg; skeletal muscles. From the text:
Animals are given two IV bolus administrations (every other week); tissues are harvested two weeks after the last dose and analyzed for acid α-glucosidase activity and glycogen content.

The conditions of data set [15]: cited from earlier work.
Another data set has as its system Gaa KO mice. Briefly: Muscle function in Gaa KO mice, 12 biweekly administrations. It counts as in vivo, mouse. The conditions noted are these: 20 mg/kg ERT, 10 mg/kg miglustat, FIGS. 33A-33B. From the text:
In FIG. 33A, * indicates statistically significant compared to Lumizyme® alone (p<0.05, 2-sided t-test). In FIGS. 34A-34G, * indicates statistically significant compared to Lumizyme® alone (p<0.05, multiple comparison using Dunnett's method under one-way ANOVA analysis).

The target of data set [16] is T1, CIMPR. Briefly: CIMPR affinity chromatography of rhGAA. The format is binding. The conditions noted are these: fraction of total enzyme by GAA activity. As for the experimental part: To evaluate the ability of the rhGAA in Myozyme® and Lumizyme®, the only currently approved treatments for Pompe disease, these rhGAA preparations were injected onto a CIMPR column (which binds rhGAA having M6P groups) and subsequently eluted with a free […] gradient. Fractions were collected in 96-well plate and GAA activity assayed by 4MU—α-glucose substrate. The relative amounts of bound and unbound rhGAA were determined based on GAA activity and reported as the fraction of total enzyme.

[17] abbreviates: one patient, switched from Lumizyme®, ATB200 5, 10, 20 mg/kg then 20 mg/kg + miglustat 130 and 260 mg.

T1 sequence (P11717 41-2491, species assumed): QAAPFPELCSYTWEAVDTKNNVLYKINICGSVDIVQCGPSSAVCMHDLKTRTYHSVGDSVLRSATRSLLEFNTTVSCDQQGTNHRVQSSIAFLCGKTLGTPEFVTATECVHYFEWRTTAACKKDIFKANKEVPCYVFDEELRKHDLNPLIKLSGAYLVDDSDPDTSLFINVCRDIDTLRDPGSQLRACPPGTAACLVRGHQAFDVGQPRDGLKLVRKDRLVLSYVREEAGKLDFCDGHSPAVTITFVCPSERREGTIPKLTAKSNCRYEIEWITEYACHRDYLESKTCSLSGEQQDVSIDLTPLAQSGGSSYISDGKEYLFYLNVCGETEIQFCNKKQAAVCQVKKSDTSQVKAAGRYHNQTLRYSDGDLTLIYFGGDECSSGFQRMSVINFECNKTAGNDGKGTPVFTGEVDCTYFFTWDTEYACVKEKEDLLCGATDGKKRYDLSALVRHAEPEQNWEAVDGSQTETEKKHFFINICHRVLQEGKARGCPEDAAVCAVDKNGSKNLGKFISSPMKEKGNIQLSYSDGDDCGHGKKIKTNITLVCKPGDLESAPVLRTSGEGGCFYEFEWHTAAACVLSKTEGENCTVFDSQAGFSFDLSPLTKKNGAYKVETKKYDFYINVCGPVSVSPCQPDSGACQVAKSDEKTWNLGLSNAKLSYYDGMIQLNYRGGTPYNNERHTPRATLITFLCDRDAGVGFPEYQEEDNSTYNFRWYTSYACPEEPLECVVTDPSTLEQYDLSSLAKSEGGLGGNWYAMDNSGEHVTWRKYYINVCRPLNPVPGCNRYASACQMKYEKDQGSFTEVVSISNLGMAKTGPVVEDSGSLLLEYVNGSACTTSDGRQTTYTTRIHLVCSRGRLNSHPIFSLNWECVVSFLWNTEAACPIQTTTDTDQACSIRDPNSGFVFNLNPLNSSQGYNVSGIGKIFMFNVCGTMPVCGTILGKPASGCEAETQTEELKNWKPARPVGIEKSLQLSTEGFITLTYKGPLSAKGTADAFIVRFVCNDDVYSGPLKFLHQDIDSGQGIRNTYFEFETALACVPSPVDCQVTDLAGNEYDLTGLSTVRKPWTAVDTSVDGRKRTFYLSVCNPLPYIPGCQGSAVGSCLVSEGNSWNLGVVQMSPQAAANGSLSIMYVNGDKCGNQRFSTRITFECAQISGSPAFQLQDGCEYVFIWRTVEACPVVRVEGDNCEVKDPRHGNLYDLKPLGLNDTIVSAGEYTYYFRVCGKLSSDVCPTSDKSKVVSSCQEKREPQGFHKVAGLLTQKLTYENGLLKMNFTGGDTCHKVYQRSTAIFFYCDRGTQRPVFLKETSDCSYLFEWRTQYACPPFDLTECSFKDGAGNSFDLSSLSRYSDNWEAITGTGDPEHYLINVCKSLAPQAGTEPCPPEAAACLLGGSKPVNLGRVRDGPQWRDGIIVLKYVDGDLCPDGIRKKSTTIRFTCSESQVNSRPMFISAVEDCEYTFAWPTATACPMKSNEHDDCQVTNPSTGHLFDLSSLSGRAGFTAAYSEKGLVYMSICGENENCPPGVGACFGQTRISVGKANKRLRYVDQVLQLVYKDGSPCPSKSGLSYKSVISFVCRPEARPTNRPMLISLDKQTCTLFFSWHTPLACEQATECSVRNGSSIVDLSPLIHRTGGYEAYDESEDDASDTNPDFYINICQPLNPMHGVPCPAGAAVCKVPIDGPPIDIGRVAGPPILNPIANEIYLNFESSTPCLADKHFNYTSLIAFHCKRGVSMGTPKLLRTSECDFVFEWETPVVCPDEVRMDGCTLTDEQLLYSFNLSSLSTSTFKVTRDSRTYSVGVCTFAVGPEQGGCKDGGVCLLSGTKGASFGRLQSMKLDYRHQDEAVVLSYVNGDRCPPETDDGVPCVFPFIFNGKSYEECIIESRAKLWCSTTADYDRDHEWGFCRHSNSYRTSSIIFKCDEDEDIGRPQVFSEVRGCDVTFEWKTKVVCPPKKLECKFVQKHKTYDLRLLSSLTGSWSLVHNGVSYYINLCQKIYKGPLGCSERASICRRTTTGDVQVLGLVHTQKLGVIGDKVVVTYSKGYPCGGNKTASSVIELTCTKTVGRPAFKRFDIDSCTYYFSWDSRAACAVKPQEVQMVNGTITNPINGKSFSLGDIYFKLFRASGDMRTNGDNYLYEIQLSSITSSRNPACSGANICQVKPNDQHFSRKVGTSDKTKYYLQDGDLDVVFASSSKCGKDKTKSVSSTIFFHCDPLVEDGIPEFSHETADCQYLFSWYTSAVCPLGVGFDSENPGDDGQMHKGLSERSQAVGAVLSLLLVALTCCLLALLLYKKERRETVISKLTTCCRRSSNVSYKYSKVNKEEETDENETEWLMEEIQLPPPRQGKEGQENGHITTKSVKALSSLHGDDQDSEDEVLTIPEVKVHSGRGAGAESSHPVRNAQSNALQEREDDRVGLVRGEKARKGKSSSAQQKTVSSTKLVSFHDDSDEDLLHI

Consider ATB200, for which the “CIMPR binding compared with Lumizyme®” value in the data set with CIMPR [1] (FIG. 9A) is recorded as “bound to CIMPR significantly better than Lumizyme®”. This substance showed a Kd with CIMPR [1] (M6P receptor plate binding assays) of 2 to 4 nM. The “concentration that saturates cellular receptors” value in data set [2] is “about 20 nM”. Further, the “internalization into normal and Pompe fibroblast cells” value in [2] (vs Lumizyme®) is given as “internalized to a greater degree than conventional Lumizyme® rhGAA”. Moreover, in data set [3], the adverse events result is “generally mild and transient”; the infusion-associated reactions entry is given as “no infusion-associated reactions”; the serious adverse events entry is recorded as “no serious adverse events (SAEs)”. Also, in data set [4] (another patient, same regimen), the “reduction in ALT” value amounted to 11%, the “reduction in AST” value came to 22% and the “reduction in CPK” value was 31%. In data set [4] (setting [17]), the “reduction in ALT” value amounted to 34%, the “reduction in AST” value is 28% and the “reduction in CPK” value stood at 44%. Moreover, the “anti-drug antibody (ADA) incidence” value in [5] is 100%. In data set [6], the Volume of distribution was 3.5 to 5.7 L and the “dose proportionality of exposures” value was “slightly greater than dose proportional exposures”. The “tmax (median)” value in data set [6] (20 mg/kg) worked out at 4.0 h. The substance further returned an AUC in data set [7] of 5330 µg·h/mL. Besides, in data set [8], the “Central volume of distribution (Vc)” value is given as 0.0101 × (BW/0.25)^0.83 L, the “Peripheral clearance (CLd)” value is recorded as 0.00029 × (BW/0.25)^0.78 L/h, the “Peripheral volume of distribution (V2)” value is 0.000653 × (BW/0.25)^0.83 L and the “Systemic clearance (CL)” value was 0.00957 × (BW/0.25)^0.78 L/h. In addition, the “lysosome proliferation (LAMP1)” value in the data set with Gaa knockout mice [9] (FIG. 20) is “reduction in lysosome proliferation in heart, diaphragm and skeletal muscle (soleus) tissue compared to conventional treatment with alglucosidase alfa”. Further, the “punctate glycogen levels (PAS)” value in the data set with Gaa knockout mice [9] (FIG. 21) was “reduction in punctate glycogen levels in heart and skeletal muscle (soleus) tissue compared to conventional treatment with alglucosidase alfa”. Moreover, the “test article-related changes (survival, clinical observations, body weight, ECG, clinical pathology, organ weights, histopathology)” value in the data set on cynomolgus monkeys is listed as “no changes attributable”. The “No-Observed-Adverse-Effect-Level (NOAEL)” value with cynomolgus monkeys (2 hour infusion, with or without miglustat, highest dosage tested) stood at 100 mg/kg/infusion. Also, in [10], the “Kupdate (internalization)” value lay within 7 to 14 nM. Besides, the tissue glycogen depletion result in the data set with Gaa knockout mice [11] (5, 10 and 20 mg/kg IV) was “deplete tissue glycogen in acid α-glucosidase (Gaa) knockout mice in a dose-dependent fashion”. Besides, the “Glycogen, median” value with Gaa knockout mice [11] (ATB200 5 mg/kg monotherapy, Study #1) is 307 μg/mg protein. Besides, in the data set with Gaa knockout mice [11] (ATB200 5 mg/kg monotherapy, overall median), the “Glycogen, median” value came out at 307 μg/mg protein. In addition, the “Glycogen, median” value in the data set with Gaa knockout mice [11] (ATB200 10 mg/kg monotherapy, Study #1) is listed as 259 μg/mg protein. Also, the “Glycogen, median” value with Gaa knockout mice [11] (ATB200 10 mg/kg monotherapy, overall median) is recorded as 259 μg/mg protein. Moreover, the “Glycogen, median” value with Gaa knockout mice [11] (ATB200 20 mg/kg monotherapy, Study #1) was 157 μg/mg protein. Besides, the “Glycogen, median” value in the data set with Gaa knockout mice [11] (ATB200 20 mg/kg monotherapy, Study #3) turned out to be 195 μg/mg protein. Moreover, the “Glycogen, median” value with Gaa knockout mice [11] (ATB200 20 mg/kg monotherapy, overall median) is given as 181 μg/mg protein. The “apparent plasma half-life t1/2” value in data set [12] is roughly 45 m. Moreover, in [13], the “mean terminal half-life (t1/2β)” value was in the range of 1.70 to 11.1 h and the “time to maximal ATB200 plasma concentration (tmax)” value is “approximately 2 hours”. Besides, the “glycogen reduction vs Lumizyme® 20 mg/kg” value with Gaa knockout mice [14] is recorded as “significantly better reduction of glycogen levels in skeletal muscles than Lumizyme®”.
On to “Lumizyme®: conventional rhGAA product (alglucosidase alfa), Genzyme”, for which the AUC in [15] (20 mg/kg dose, reported) was roughly 2700 µg·h/mL. In addition, the systemic clearance in [15] (Week 52, repeated dosing, late-stage Pompe disease, product label) is 601 mL/h. In addition, the half-life in data set [15] (product label) is given as 2.4 h. Besides, the “functional muscle strength (grip strength and wire hang tests)” value in the data set on Gaa KO mice was “observed to decline”. Moreover, in the data set with CIMPR [16], the “rhGAA activity eluted prior to addition of M6P (did not bind to the CIMPR)” value is on record as 78% and the “rhGAA eluted with M6P / containing M6P (CIMPR binding)” value was 22%. Moreover, the “concentration that saturates cellular receptors” value in data set [2] was “about 250 nM”. In addition, the “uptake efficiency constant (Kuptake)” value in data set [2] (extrapolated, FIG. 10C) is reported as 56 nM.

As usually defined, the Kd is the constant that tells how readily two partners part at equilibrium. By AUC is commonly meant the area under the concentration-time curve, a measure of exposure. By half-life is commonly meant how long it takes for the measured level to halve.
